Here are results for one molecule from patent US20130260436A1, “Methods of Identifying and Characterizing Natural Product Gene Clusters” (Victoria LInk Limited, priority 2010, published 2013).

One experiment has as its target Sfp (Bacillus spizizenii, UniProt G4NQW2). The experiment can be described thus: Carrier protein (CoA) competition assay with Sfp. Format: biochemical, B. subtilis subsp. spizizenii ATCC6633. The settings on record: competition with BpsA for limited CoA (250 nM), read-out: IC50 for carrier protein mediated inhibition of BpsA activation. An excerpt: (§1) Another aspect of the invention described is a CoA competition assay for PPTase characterization. Assays of this type consist of two phases. In the first phase is the competition phase in which apo-BpsA and a purified carrier protein (CP) to be characterized compete for a limited pool of CoA which is attached to either the CP to be characterized or apo-BpsA by a PPTase. During this first phase, only the substrates necessary for phosphopantetheinylation are present. Following the competition phase, the production phase is initiated. In the production phase, the substrates required for pigment synthesis by holo-BpsA (L-gln and ATP) are added to reaction vessels and the velocity (A590/s) of the resulting reaction measured. […]
(§2) One limitation of the approach outlined above for determination of PPTase kinetic parameters is that it only provides information about a PPTase of interest with a single carrier protein substrate (that of BpsA). […] Four carrier proteins were employed in assessed using this assay, these were: The peptide carrier protein of BpsA (bPCP), the peptide carrier protein of the first module of the Pseudomonas aeruginosa NRPS PvdD (pPCP), the peptide carrier protein of the Microcysitis aeruginosa NRPS/PKS MycG (mPCP) and the aryl carrier protein from Nostoc punctiforme protein HetM (npArCP). […]

For a further experiment, the target named is PcpS (Pseudomonas aeruginosa, UniProt Q9I4H2). The experiment can be described thus: Carrier protein (CoA) competition assay with PcpS. Format: biochemical, P. aeruginosa PAO1. The settings on record: competition with BpsA for limited CoA (250 nM), read-out: IC50 for carrier protein mediated inhibition of BpsA activation.
Text: as §1, §2

For a further experiment, the target named is PP1183 (Pseudomonas putida, UniProt Q88NM4). The experiment can be described thus: Carrier protein (CoA) competition assay with PP1183. The settings on record: competition with BpsA for limited CoA (250 nM), read-out: IC50 for carrier protein mediated inhibition of BpsA activation. Format: biochemical, P. putida KT2440.
Text: as §1, §2

In experiment [1] the target is PP1183, putative phosphopantetheinyl transferase of Pseudomonas putida KT2440 (Pseudomonas putida KT2440). The experiment can be described thus: cell-based or functional assay.
For experiment [2], the target named is Sfp, phosphopantetheinyl transferase of Bacillus subtilis subsp. spizizenii ATCC6633 (Bacillus subtilis subsp. spizizenii ATCC6633). The experiment can be described thus: cell-based or functional assay.
Experiment [3] has as its target PcpS, phosphopantetheinyl transferase of Pseudomonas aeruginosa PAO1 (Pseudomonas aeruginosa PAO1). The experiment can be described thus: cell-based or functional assay.

Sequence of PcpS (Q9I4H2 entry or part of it): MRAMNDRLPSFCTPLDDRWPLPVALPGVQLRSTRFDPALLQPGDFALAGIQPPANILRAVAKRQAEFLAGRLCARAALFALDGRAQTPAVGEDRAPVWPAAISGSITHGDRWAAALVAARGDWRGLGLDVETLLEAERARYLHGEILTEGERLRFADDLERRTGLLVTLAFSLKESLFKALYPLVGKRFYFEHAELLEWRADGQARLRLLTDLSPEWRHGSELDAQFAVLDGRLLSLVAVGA
Sequence of PP1183 (Q88NM4 entry or part of it): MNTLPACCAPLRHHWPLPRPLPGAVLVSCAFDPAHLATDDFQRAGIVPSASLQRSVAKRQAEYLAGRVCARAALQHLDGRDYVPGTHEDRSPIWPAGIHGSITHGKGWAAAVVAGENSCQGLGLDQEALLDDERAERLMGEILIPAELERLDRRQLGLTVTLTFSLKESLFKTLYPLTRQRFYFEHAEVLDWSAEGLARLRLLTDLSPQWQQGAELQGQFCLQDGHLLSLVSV
Sequence of Sfp (G4NQW2 entry or part of it): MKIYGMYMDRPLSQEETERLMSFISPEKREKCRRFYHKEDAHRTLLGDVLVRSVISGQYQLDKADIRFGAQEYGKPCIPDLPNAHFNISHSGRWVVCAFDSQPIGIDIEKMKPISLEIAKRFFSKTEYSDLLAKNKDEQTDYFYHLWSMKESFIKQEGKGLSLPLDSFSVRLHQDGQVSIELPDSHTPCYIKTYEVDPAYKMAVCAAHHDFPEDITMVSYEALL

B1: The peptide carrier protein of BpsA (bPCP), purified recombinant His6 tagged (protein)
chain: FVAPRTETEKEIAAVWEKALRRENASVQDDFFESGGNSLIAVGLVRELNARLGVSLPLQSVLESPTIEKLARRLE
As usually defined, the IC50 is the concentration that gives 50% inhibition. Regarding B1, the results for the half-inhibitory concentration (IC50) with Sfp, with PcpS and with PP1183 were 720 nM, 710 nM and 300 nM, respectively. Besides, the IC50 (carrier protein competition with BpsA for limiting CoA) in experiment [1] is 300 nM; in experiment [2] it was 720 nM; in experiment [3], 710 nM. Further, the kcat/Km (estimate derived from IC50) (Min^-1 · µM^-1) in experiment [1] was 3.88; in experiment [2] it was 0.69; in experiment [3], 7.77.
